One molecule from publication PMC9191643, “Cryo-EM structure of DNA-bound Smc5/6 reveals DNA clamping enabled by multi-subunit conformational changes” can be followed below.

For the data set, the target named is Smc5 (E1015Q);Smc6 (E1048Q);Nse1;Nse2;Nse3;Nse4 (Saccharomyces cerevisiae;Saccharomyces …, UniProt Q08204;Q12749;Q07913;P38632;Q05541;P43124 1-1093;1-1114;1-336;1-267;1-303;1-402, E1015Q|E1048Q||||). The data set is described as follows: cryo-EM structure (3.8 A); 1 mM ATP, 2 mM MgCl2; 0.3 mg/mL complex, 1.5 uM DNA; Cryo-EM sample: 1 mM ATP, 2 mM MgCl2, 1.5 uM dsDNA, 4 C, 2 h; complex from size exclusion in 25 mM Hepes pH 7.5, 250 mM NaCl, 1 mM DTT (final binding buffer not stated). To be noted: protein: recombinant;recombinant;recombinant;recombinant;recombinant;recombinant; copies: 1;1;1;1;1;1; blunt. A general note: Size exclusion chromatography separates by hydrodynamic size, large species first.

B1: cryo-EM dsDNA (dsDNA)
DNA 1: TGGTTTTTATATGTTTTGTTATGTATTGTTTATTTTCCCTTTAATTTTAGGATATGAAAACAAGAATTTATC
DNA 2: GATAAATTCTTGTTTTCATATCCTAAAATTAAAGGGAAAATAAACAATACATAACAAAACATATAAAAACCA
As for B1, the binding result is “binds”.
